Measurements from paper PMC12846072.

Target: VP2 capsid protein of Epizootic hemorrhagic disease virus serotype 8, wild type (Epizootic hemorrhagic disease virus serotype 8 (EHDV-8)) (UniProt Q00273)
Assay: SEC; FPLC-SEC on Superose 6 16/300 in PBS 1X pH 7.4, calibrated with the gel filtration HMW calibration kit; oligomeric state from retention time

Substance: VP2 capsid protein of Epizootic hemorrhagic disease virus serotype 8, wild type (from UniProt Q00273 1-971) (natural protein)
- stoichiometry N: 3
